From the supplement of paper PMC12042874 come the findings set out here.

± gives the uncertainty stated by the source.

The data set in a line: amyloid nucleation score (Sup35N fusion, yeast selection) (log enrichment); library NNK1; higher = more nucleation; inactive = no reads after selection. The gist of the method: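 Psi-negative yeast expressed Sup35N fused to peptides of 20 random codons. They were induced 24 hours with 100 μM copper sulfate, grown 7 days at 30°C without adenine and uracil, and their plasmid inserts from input and output were Illumina-sequenced. The nucleation score is the DiMSum log enrichment of output over input reads, centred on the mode score of non-aggregating sequences. Sequences with under 100 input reads were excluded.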
For the substance TCILDHGPSMGRHSLGALIL, the amyloid nucleation score is -0.969 ± 1.1.

With AVYAAYFWGSI, the amyloid nucleation score is -0.065 ± 0.69.

With ADVEVC, the amyloid nucleation score is -0.005 ± 0.56.

The substance RWSLAWKIMCEL had an amyloid nucleation score of 0.055 ± 0.3. Substance VGIWLGTGTWGCKGL displayed an amyloid nucleation score of 0.485 ± 0.66.

In turn, LVIFKLTM gave an amyloid nucleation score of 3.51 ± 0.066.

For the substance STIMMF, the amyloid nucleation score came out at 0.289 ± 0.52. For IWDSVLF the value was 1.57 ± 0.33. Then TVLYPGPGAVS, with 0.155 ± 0.73. For KACFPLI, the amyloid nucleation score amounted to 0.631 ± 0.45. Consider TYSSARDSS, for which the amyloid nucleation score is -0.209 ± 0.63.

RFKRWGKR gave an amyloid nucleation score of 0.39 ± 0.41. For DSTILNSLSPVWPRSATGPS the value was -0.529 ± 0.63; for FFSMSSVTNKFSTSCRLNHS, 3.18 ± 0.099. Then SVASRACW, with 0.139 ± 0.8; and ADTCPFCDHWTQSSNRWQEL, with 0.692 ± 0.41; and MKMNDYMGVRDWVHLIDVCS, with “inactive”.

On to WFIRARFTLGKRNELREVI, for which the amyloid nucleation score turned out to be 0.647 ± 0.64.

In turn, IMGVDVLGYTLDPVGDCNVF returned an amyloid nucleation score of 0.412 ± 0.73. As to SLRWSQSPFYFVTSIGRQGG, the amyloid nucleation score turned out to be 0.585 ± 0.55. Then LVGPAVVSYCCIRLISVVD, with 1.94 ± 0.58; and WGEFYVNSSNFVNMQSVWQQ, with -0.257 ± 1.7; and NRIISLCSLSCDYLNLDWCI, with 7.13 ± 0.08. In the case of DFLFNGLNITRCYFA, the amyloid nucleation score stood at 0.193 ± 0.72. Turning to LRLPSRAFEGFRREAAWGST, the amyloid nucleation score stood at 1.23 ± 0.76. Then SNLLGSMFLLCHQIKHRPEI, with -0.764 ± 0.34; and LCIIYVNYSGLLMTVNISSF, with “inactive”; and LAMSSQSHYCKRRSVCRKSV, with 0.786 ± 0.81. Then VWDRWDSGHVCYSNMAVWNV, with 0.536 ± 0.36; and STNLMKMWLFHLRDTAR, with 0.583 ± 0.37. Then RMLLRFYIATGYLWSIQNCR, with “inactive”; and DRRFFSSV, with -1.36 ± 1.

With AGRSWSCMLVTVWSRTRVPL, the amyloid nucleation score came to 0.351 ± 0.6.

Consider WFGDGSCKRWLWGMKVTPED, for which the amyloid nucleation score is -0.518 ± 0.69.

The substance VKMFMD came in with an amyloid nucleation score of 0.644 ± 0.59. Then DDSSDTEVRLGYALAGIKVG, with -0.406 ± 0.34; and LRHLVIGNKNALLVWFRSHI, with 0.817 ± 0.52; and VFLVYLY, with -0.608 ± 0.28. Then GVKTAYGNHAMWRDAVSRRG, with 0.15 ± 0.57; and GWVMLTCIRNAGVNLRPGSR, with 1.58 ± 0.53.

In turn, AGAVLLNVMLCARLQRSEYY yielded an amyloid nucleation score of 2.17 ± 0.14. Then AILVHCSVLTVA, with 0.584 ± 0.66; and WVLVIVLLRRWHHRDGAGQS, with 0.57 ± 0.47; and IHHSLHYPLYSWKSNWRTWG, with -0.353 ± 0.61. For RGSMSEWNILYVYASIYKGD, the amyloid nucleation score came out at 1.6 ± 0.42. In the case of CHHSYCMITPLTVSTARNGW, the amyloid nucleation score is 0.749 ± 0.35. Then IVGST, with -0.894 ± 0.47; and LVRWVCIGFRYILRGELGVE, with 0.052 ± 0.28. For the substance LNAESLMSRFVCGMFVVTKG, the amyloid nucleation score came to 0.112 ± 1.2. For YSVSWQLFGIDVCTFVTVRS the value was 0.367 ± 0.52. Then FANFIAVMVTGTILF, with “inactive”; and DSMYF, with 0.367 ± 0.53; and HSHRVIS, with 0.828 ± 0.51.

On to LLVGMPPNIDM, for which the amyloid nucleation score is -0.078 ± 0.41. On to RCDGTQDKCWDKSLLFGERR, for which the amyloid nucleation score stood at 0.618 ± 0.45.

Consider CFYAA, for which the amyloid nucleation score is -0.557 ± 0.56. With LFGLYFICSLKAISSYTERL, the amyloid nucleation score was 0.456 ± 0.23. Then DRSTIWSTHNSTYVVYYLVV, with 5.18 ± 0.063; and LTYRVFIHYRSRQYVFGTVS, with -0.667 ± 0.62. HAIGTQMVTLGLRSISFSWN yielded an amyloid nucleation score of 1.19 ± 0.67. Turning to ILWFYYTLGACFCWLYINYK, the amyloid nucleation score was found to be 0.26 ± 0.57.

Turning to SLMTQDCNFRYYLKRCI, the amyloid nucleation score worked out at 0.894 ± 0.63. For the substance ALCLKGSMNVEFMIRTSGFN, the amyloid nucleation score turned out to be 0.705 ± 0.51. Then MLRMQKIGLFSLGMSC, with -0.838 ± 0.47. Then QFFTILCTGILLLNASTRLL, with -0.777 ± 2.4; and SDFTIINFQYFLASCCTGYV, with 7.602 ± 0.048; and FWLNLPAWISFAMFVCIVYV, with -0.132 ± 0.47. For GTLHSKCRGICLDCVAIVIL the value was -0.092 ± 0.39. On to YHVRLV, for which the amyloid nucleation score was 0.147 ± 0.34. For LDLAGGKG the value was 1.74 ± 0.14; for YFFRKLSGSWASSFLVAPMV, 0.444 ± 0.59; for VRLLEHSANPSMGKMNMNVG, 0.231 ± 0.74. Then NYVSLGDVKRRMPGLFELTA, with 0.048 ± 0.43; and NCHSSFYGNDIGGLSHVMCL, with 1.89 ± 0.7. Take VSHYGCFQTVCDLRVGGPPE: the amyloid nucleation score is -1.4 ± 2.4.

The substance RWGDHKQC registered an amyloid nucleation score of 0.041 ± 0.41. Consider AMYVDQVLHQPRPLMSPRMQ, for which the amyloid nucleation score was 0.515 ± 0.51. For MSPWASNHLW the value was “inactive”; for LFRNANAMDYVVRCWCSRGI, 0.928 ± 0.18. For DWVLTGGRIWK the value was -0.803 ± 0.54. Then YMYQIG, with -0.691 ± 1.7; and AMNGVLVIGGV, with -0.668 ± 1.7. In turn, FTNKFCFL gave an amyloid nucleation score of 0.069 ± 0.35. For NYSEPDFKFHCVYGVYAMWG the value was 0.403 ± 0.88. In turn, ILSRKGLLVQRKRVNVVVIP showed an amyloid nucleation score of 0.437 ± 0.32. As for YIFWLYWRQSSSNCLGDVKW, the amyloid nucleation score is -0.46 ± 0.46. For VPANEFCMADIMHRANRMLG the value was 0.758 ± 0.71; for RLSIFRLYPLLCRRG, 0.163 ± 0.34. Consider SYHNLCGSESGQVVNNQDRM, for which the amyloid nucleation score is -0.852 ± 0.51. For GAFEGVFHRVMSDGRGAFAR the value was -0.289 ± 0.42. For NGVVLLFFSDSADMRLCAAM the value was 0.319 ± 0.58; for HVWRDGSE, 1.82 ± 0.54.

With SWDVAYVSMF, the amyloid nucleation score came out at 0.124 ± 0.6. For KIRLQVNSFMFVTPWAHFMV the value was 4.55 ± 0.052; for YLILYPRASFKYAIILWSCF, -0.749 ± 0.42; for RRSYVSSEMNTSKRKSCPLS, 0.659 ± 0.45.

Substance LRTVPIALIRNMLPVNQESR displayed an amyloid nucleation score of 0.479 ± 0.53. For LWSLDSDSCKVLGDSGCGFF, the amyloid nucleation score was 0.133 ± 0.34.

On to LVMFSNLCSWFLLF, for which the amyloid nucleation score was 0.966 ± 0.62.

On to NFFYT, for which the amyloid nucleation score was -0.758 ± 1.1. Consider HLPTKFLGVPNKLAYSTAPV, for which the amyloid nucleation score is -0.401 ± 0.42. For LGFPMRSVGQI the value was “inactive”. For QEGCQTLTSTSLVGGRKESS the value was 0.872 ± 0.75. Consider GKLDCVKVLNVHCP, for which the amyloid nucleation score is 0.527 ± 0.61. For SWGMVFLNSRVPWRVMFNSC the value was 0.154 ± 0.48; for SSTILQLCSPNRRLRSTKLG, 1.97 ± 0.7.

Substance LLRLVSFCCFSNRN yielded an amyloid nucleation score of 6.05 ± 0.053. For TYSKSVCWAHHHSYTGVCLT the value was 0.127 ± 0.52. Then DLVSTVKDGAECDDKEECSL, with -0.147 ± 0.26; and WIYRFPHKMHVIEDVRSVN, with 0.894 ± 0.58; and TSVSKLQHWIYFTFY, with -0.834 ± 1.4. Then RFSAK, with 0.585 ± 0.33; and DSASGNILYIRKLVI, with 1.84 ± 0.13. QRECWMYMMFMGYHLLEAQV: the amyloid nucleation score stood at 0.215 ± 1.2. IMNMIA gave an amyloid nucleation score of 0.455 ± 0.48. RTSLNLNIRNTWAKWLGAEF: the amyloid nucleation score was found to be 4.29 ± 0.1. For TLRYKNT, the amyloid nucleation score came out at 0.371 ± 0.76.

For AFRRNSPVSWSRR, the amyloid nucleation score was 0.37 ± 0.35. For NTSSFVSTNWSGFPWSGSRY the value was 2.02 ± 0.24. For AVRWLHIGWSKETGRNCDCR the value was 0.671 ± 0.64; for TRTTKMAH, 1.24 ± 0.45. Then FEKTIHFV, with 0.43 ± 0.36; and LIYESNREHYYMRSRSAVTR, with -0.825 ± 0.99; and PLNSRTCGPFARSSIWDWDT, with 0.937 ± 0.9. For the substance NSYFWSGEIIIEYQRP, the amyloid nucleation score is -1.23 ± 0.65. Turning to LEQCYAAHSTYKMMPWAYKA, the amyloid nucleation score was determined as 0.091 ± 0.33.

For ILICQCLMLACGRVFSFYLV, the amyloid nucleation score was -0.328 ± 0.57. For FGLYYLSNSEFMYVDRFHLG the value was -0.575 ± 0.38; for YCWRVSHLGNGRYRLSLSFG, “inactive”.

As for LFIKVLLGFF, the amyloid nucleation score was found to be 0.32 ± 0.45. For SPPFQSELMLPLRLSGLVSS the value was 1.28 ± 0.93; for LIHVCQYCVRPVNGGSVNLR, 0.264 ± 0.44.

For YEPEGIQSIWRCSAVRHAKA, the amyloid nucleation score is -0.286 ± 1.9. For VYASGWAQISVTGGTWLRGD the value was 0.131 ± 0.42; for TYFSDLVRRRRCKAGNVWFL, 1.58 ± 0.74. Then GCKGGSATCSTRTWMCSWGG, with 2.27 ± 0.12. For RSGSLCGFLREKKVRNTFWV the value was -0.376 ± 0.59; for YGYLTITPVQVYIQRTSTWT, 4.16 ± 0.12. Turning to NNGAVVSGS, the amyloid nucleation score was -0.046 ± 0.25.

As to FASILVFQNGSIATCAINWV, the amyloid nucleation score was found to be 0.694 ± 0.84.

In turn, AVQFCCWDMRTVIAS showed an amyloid nucleation score of 5.76 ± 0.066.
